Data reported in US20060217891A1.
Ends that are not written are not given here.

Molecular target: Fas (Receptor) on the Fas-expressing human ovarian cancer cell line NOS4 (human) (UniProt P25445)
Experiment: cell-based or functional assay

Chain of Fas (Receptor) on the Fas-expressing human ovarian cancer cell line NOS4 (human) (P25445 26-335): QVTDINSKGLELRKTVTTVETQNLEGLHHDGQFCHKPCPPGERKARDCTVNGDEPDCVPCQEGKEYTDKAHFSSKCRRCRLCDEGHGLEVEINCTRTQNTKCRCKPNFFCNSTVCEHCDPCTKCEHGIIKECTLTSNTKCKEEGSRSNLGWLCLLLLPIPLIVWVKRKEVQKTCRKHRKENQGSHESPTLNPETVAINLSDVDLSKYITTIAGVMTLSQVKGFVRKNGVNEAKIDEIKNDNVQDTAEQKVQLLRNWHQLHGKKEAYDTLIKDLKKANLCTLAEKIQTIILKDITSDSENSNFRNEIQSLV

B1: (FLLP-1)4-MAP8 (four WEWT peptides bound to MAP-8) (peptide, part only)
chain: WEWT
modifications: also: tetramer: each copy bound to one of 4 branches of MAP-8, remaining four amino groups of MAP-8 protected
Apoptosis induction Activity (%) of NOS4 cells at 0.01 µg/ml: 7% | Apoptosis induction Activity (%) of NOS4 cells at 0.03 µg/ml: 15% | Apoptosis induction Activity (%) of NOS4 cells at 0.1 µg/ml: 48% | Apoptosis induction Activity (%) of NOS4 cells at 0.3 µg/ml: 67% | Apoptosis induction Activity (%) of NOS4 cells at 1 µg/ml: 78%

B2: Fas complementary peptide tetramer [(FRP-2)4-MAP] (peptide, part only)
chain: EPPMTFISIHTMCH
modifications: also: tetramer: each copy bound to one of four branches of a lysine polymer (MAP)
apoptosis induction potential relative to the monomer FRP-2: 30 times | apoptosis of NOS4 cells, same method as Test Example 1, at 5 mg/ml as printed: 50%
